Results: PMC4842197, “Preclinical in vivo application of ^152Tb-DOTANOC: a radiolanthanide for PET imaging” (EJNMMI Research, 2016)
Bridge positions count the residues as written; N and C are the ends. Square brackets hold non-standard residues; d marks the D form. Peptide text beside a SMILES is read from it. * marks the point of attachment. DOTA = O=C(O)CN1CCN(CC(=O)O)CCN(CC(=O)*)CCN(CC(=O)O)CC1; 1Nal = N[C@@H](Cc1cccc2ccccc12)C(=O)O; Thr(ol) = C[C@@H](O)[C@H](N)CO

Legend:
[1] = test system: AR42J tumor-bearing mice; assay: in vivo; details: female, CD-1 Foxn-1/nu nude, mouse, iv, 5 nmol per mouse, 5 h
Description: (§1) AR42J tumor cells, a rat exocrine pancreatic tumor cell line which is known to express the somatostatin receptor, were obtained from the European Collection of Cell Cultures (ECACC). The cells were cultured in RPMI 1640 medium, supplemented with 10 % fetal calf serum, L-glutamine, and antibiotics under standard conditions in a humidified atmosphere with 5 % CO2 at 37 °C. Routine culture was performed by trypsinization of the cells twice a week. To inoculate the animals, the cells were detached using trypsin, centrifuged, and resuspended in PBS at a concentration of 5 × 10^6 cells/100 μL.
(§2) In vivo experiments were approved by the local veterinary department and conducted in accordance with the Swiss law of animal protection. Female nude mice (CD-1 Foxn-1/nu) were purchased from Charles River Laboratories (Sulzfeld, Germany). The animals were fed with a standard rodent chow ad libitum (Kliba Nafag, Kaiseraugst, Switzerland).
(§3) About 2 weeks prior to biodistribution and imaging studies, the mice were inoculated with AR42J tumor cells by subcutaneous injection of the cell suspension (5 × 10^6 cells/100 μL) on each shoulder.
(§4) Mice were euthanized at pre-determined time points between 30 min and 22 h after injection of the radioconjugate. […] Selected tissues and organs were collected, weighed, and counted for radioactivity using a γ-counter (Packard Canberra Cobra II, USA). The results were listed as a percentage of the injected activity per gram of tissue mass (% IA/g), using counts of a defined volume of the original injection solution measured at the same time.

[2] = in vivo; details: female, CD-1 Foxn-1/nu nude, mouse, iv, total radioactivity, Biodistribution
Description: as §1, §2, §3, §4

[3] = 2.5 nmol per mouse (5 MBq), AR42J tumor
[4] = 2.5 nmol per mouse (5 MBq), Blood
[5] = 2.5 nmol per mouse (5 MBq), Bone
[6] = 2.5 nmol per mouse (5 MBq), Brain
[7] = 2.5 nmol per mouse (5 MBq), Heart
[8] = 2.5 nmol per mouse (5 MBq), Lung

With C[C@@H](O)[C@@H]1NC(=O)[C@H](CCCCN)NC(=O)[C@@H](Cc2c[nH]c3ccccc23)NC(=O)[C@H](Cc2cccc3ccccc23)NC(=O)[C@@H](NC(=O)[C@@H](Cc2ccccc2)NC(=O)CN2CCN(CC(=O)O)CCN(CC(=O)O)CCN(CC(=O)O)CC2)CSSC[C@@H](C(=O)N[C@H](CO)[C@@H](C)O)NC1=O [^177Lu-DOTANOC, metal not drawn] ({DOTA}-[dF]C[1Nal][dW]KTC[Thr(ol)]; disulfide 2-7) the “Biodistribution, AR42J Tumor” value [1] was ~ 4 % IA/g, the tissue uptake at 5 h ([2]; 0.5 nmol peptide, Adrenals) was 0.7 ± 0.13 %ID/g and the tissue uptake at 5 h ([2]; 0.5 nmol peptide, Kidneys) was 6.63 ± 0.1 %ID/g. It also gave a tissue uptake at 5 h ([2]; 0.5 nmol peptide, Lung) of 1.18 ± 0.36 %ID/g, a tissue uptake at 5 h ([2]; 0.5 nmol peptide, Spleen) of 0.24 ± 0.03 %ID/g and a tissue uptake at 5 h ([2]; 0.5 nmol per mouse, AR42J Tumor) of 25.3 ± 4.14 %ID/g. It also gave a tissue uptake at 5 h ([2]; 0.5 nmol, Blood) of 0.09 ± 0.01 %ID/g, a tissue uptake at 5 h ([2]; 0.5 nmol, Bone) of 0.33 ± 0.08 %ID/g and a tissue uptake at 5 h ([2]; 0.5 nmol, Brain) of 0.01 %ID/g. For the same compound, the tissue uptake at 5 h ([2]; 0.5 nmol, Heart) was 0.08 ± 0.01 %ID/g, the tissue uptake at 5 h ([2]; 0.5 nmol, Liver) was 0.34 ± 0.01 %ID/g and the tissue uptake at 5 h ([2]; 0.5 nmol, Muscle) was 0.02 ± 0.01 %ID/g. It also gave a tissue uptake at 5 h ([2]; 0.5 nmol, Stomach) of 3.78 ± 0.28 %ID/g, a tissue uptake at 0.5 h [2, 3] of 9.02 ± 0.33 %ID/g and a tissue uptake at 2 h [2, 3] of 8.32 ± 0.47 %ID/g. For the same compound, the tissue uptake at 5 h [2, 3] was 8.45 ± 1.04 %ID/g, the tissue uptake at 16 h [2, 3] was 5.48 ± 0.98 %ID/g and the tissue uptake at 22 h [2, 3] was 4.51 ± 0.37 %ID/g. It also gave a tissue uptake at 0.5 h [2, 4] of 2.52 ± 0.65 %ID/g, a tissue uptake at 2 h [2, 4] of 0.09 ± 0.01 %ID/g and a tissue uptake at 5 h [2, 4] of 0.06 ± 0.01 %ID/g. It also gave a tissue uptake at 16 h [2, 4] of 0.07 ± 0.01 %ID/g, a tissue uptake at 22 h [2, 4] of 0.03 %ID/g and a tissue uptake at 16 h [2, 5] of 0.12 ± 0.05 %ID/g. It also gave a tissue uptake at 22 h [2, 5] of 0.08 ± 0.01 %ID/g, a tissue uptake at 0.5 h [2, 6] of 0.06 ± 0.01 %ID/g and a tissue uptake at 2 h [2, 6] of 0.01 %ID/g. It also gave a tissue uptake at 5 h [2, 6] of 0.02 %ID/g, a tissue uptake at 16 h [2, 6] of 0.02 ± 0.01 %ID/g and a tissue uptake at 22 h [2, 6] of 0.01 %ID/g. For the same compound, the tissue uptake at 0.5 h [2, 7] was 1.34 ± 0.35 %ID/g, the tissue uptake at 2 h [2, 7] was 0.08 ± 0.01 %ID/g and the tissue uptake at 5 h [2, 7] was 0.07 ± 0.01 %ID/g. It also gave a tissue uptake at 16 h [2, 7] of 0.07 ± 0.01 %ID/g, a tissue uptake at 22 h [2, 7] of 0.03 %ID/g and a tissue uptake at 0.5 h [2, 8] of 3.04 ± 0.47 %ID/g. It also gave a tissue uptake at 2 h [2, 8] of 0.45 ± 0.03 %ID/g, a tissue uptake at 5 h [2, 8] of 0.41 ± 0.04 %ID/g and a tissue uptake at 0.5 h ([2]; 2.5 nmol per mouse, Adrenals) of 1.38 ± 0.32 %ID/g. For the same compound, the tissue uptake at 2 h ([2]; 2.5 nmol per mouse, Adrenals) was 0.28 ± 0.14 %ID/g, the tissue uptake at 16 h ([2]; 2.5 nmol per mouse, Adrenals) was 0.51 ± 0.4 %ID/g and the tissue uptake at 22 h ([2]; 2.5 nmol per mouse, Adrenals) was 0.42 ± 0.18 %ID/g. It also gave a tissue uptake at 0.5 h ([2]; 2.5 nmol per mouse, Bone) of 1.13 ± 0.26 %ID/g, a tissue uptake at 2 h ([2]; 2.5 nmol per mouse, Bone) of 0.17 ± 0.01 %ID/g and a tissue uptake at 5 h ([2]; 2.5 nmol per mouse, Bone) of 0.12 ± 0.02 %ID/g. For the same compound, the tissue uptake at 0.5 h ([2]; 2.5 nmol per mouse, Intestines) was 0.94 ± 0.12 %ID/g, the tissue uptake at 2 h ([2]; 2.5 nmol per mouse, Intestines) was 0.25 ± 0.04 %ID/g and the tissue uptake at 5 h ([2]; 2.5 nmol per mouse, Intestines) was 0.25 ± 0.03 %ID/g. For the same compound, the tissue uptake at 16 h ([2]; 2.5 nmol per mouse, Intestines) was 0.16 ± 0.01 %ID/g, the tissue uptake at 0.5 h ([2]; 2.5 nmol per mouse, Kidneys) was 13 ± 1.85 %ID/g and the tissue uptake at 2 h ([2]; 2.5 nmol per mouse, Kidneys) was 7.67 ± 0.51 %ID/g. For the same compound, the tissue uptake at 5 h ([2]; 2.5 nmol per mouse, Kidneys) was 9.1 ± 1.66 %ID/g, the tissue uptake at 16 h ([2]; 2.5 nmol per mouse, Kidneys) was 6.13 ± 1.63 %ID/g and the tissue uptake at 22 h ([2]; 2.5 nmol per mouse, Kidneys) was 4.8 ± 0.19 %ID/g. For the same compound, the tissue uptake at 0.5 h ([2]; 2.5 nmol per mouse, Liver) was 1.43 ± 0.17 %ID/g, the tissue uptake at 2 h ([2]; 2.5 nmol per mouse, Liver) was 0.52 ± 0.04 %ID/g and the tissue uptake at 5 h ([2]; 2.5 nmol per mouse, Liver) was 0.53 ± 0.1 %ID/g. It also gave a tissue uptake at 16 h ([2]; 2.5 nmol per mouse, Liver) of 0.27 ± 0.05 %ID/g, a tissue uptake at 22 h ([2]; 2.5 nmol per mouse, Liver) of 0.2 ± 0.02 %ID/g and a tissue uptake at 16 h ([2]; 2.5 nmol per mouse, Lung) of 0.27 ± 0.05 %ID/g. It also gave a tissue uptake at 0.5 h ([2]; 2.5 nmol per mouse, Muscle) of 0.48 ± 0.16 %ID/g, a tissue uptake at 2 h ([2]; 2.5 nmol per mouse, Muscle) of 0.02 %ID/g and a tissue uptake at 5 h ([2]; 2.5 nmol per mouse, Muscle) of 0.02 ± 0.01 %ID/g. For the same compound, the tissue uptake at 16 h ([2]; 2.5 nmol per mouse, Muscle) was 0.03 %ID/g, the tissue uptake at 22 h ([2]; 2.5 nmol per mouse, Muscle) was 0.01 %ID/g and the tissue uptake at 0.5 h ([2]; 2.5 nmol per mouse, Pancreas) was 1.99 ± 0.07 %ID/g. The tissue uptake at 2 h ([2]; 2.5 nmol per mouse, Pancreas) was 1.09 ± 0.17 %ID/g, the tissue uptake at 5 h ([2]; 2.5 nmol per mouse, Pancreas) was 0.88 ± 0.11 %ID/g and the tissue uptake at 16 h ([2]; 2.5 nmol per mouse, Pancreas) was 0.34 ± 0.05 %ID/g. The tissue uptake at 22 h ([2]; 2.5 nmol per mouse, Pancreas) was 0.25 ± 0.03 %ID/g, the tissue uptake at 0.5 h ([2]; 2.5 nmol per mouse, Spleen) was 0.77 ± 0.03 %ID/g and the tissue uptake at 5 h ([2]; 2.5 nmol per mouse, Spleen) was 0.18 ± 0.02 %ID/g. The tissue uptake at 22 h ([2]; 2.5 nmol per mouse, Spleen) was 0.09 ± 0.01 %ID/g, the tissue uptake at 0.5 h ([2]; 2.5 nmol per mouse, Stomach) was 1.95 ± 0.23 %ID/g and the tissue uptake at 2 h ([2]; 2.5 nmol per mouse, Stomach) was 1.14 ± 0.04 %ID/g. For the same compound, the tissue uptake at 5 h ([2]; 2.5 nmol per mouse, Stomach) was 1.21 ± 0.55 %ID/g, the tissue uptake at 16 h ([2]; 2.5 nmol per mouse, Stomach) was 0.68 ± 0.09 %ID/g and the tissue uptake at 22 h ([2]; 2.5 nmol per mouse, Stomach) was 0.6 ± 0.22 %ID/g. For the same compound, the tissue uptake at 5 h ([2]; 5 nmol peptide, Adrenals) was 0.18 ± 0.05 %ID/g, the tissue uptake at 5 h ([2]; 5 nmol peptide, Kidneys) was 7 ± 0.69 %ID/g and the tissue uptake at 5 h ([2]; 5 nmol peptide, Lung) was 0.28 ± 0.01 %ID/g. It also gave a tissue uptake at 5 h ([2]; 5 nmol peptide, Spleen) of 0.11 ± 0.02 %ID/g, a tissue uptake at 5 h ([2]; 5 nmol per mouse, AR42J Tumor) of 3.82 ± 0.2 %ID/g and a tissue uptake at 5 h ([2]; 5 nmol, Blood) of 0.06 ± 0.01 %ID/g. For the same compound, the tissue uptake at 5 h ([2]; 5 nmol, Bone) was 0.09 ± 0.02 %ID/g, the tissue uptake at 5 h ([2]; 5 nmol, Brain) was 0.01 %ID/g and the tissue uptake at 5 h ([2]; 5 nmol, Heart) was 0.06 %ID/g. The tissue uptake at 5 h ([2]; 5 nmol, Intestines) was 0.14 ± 0.01 %ID/g, the tissue uptake at 5 h ([2]; 5 nmol, Liver) was 0.36 ± 0.04 %ID/g and the tissue uptake at 5 h ([2]; 5 nmol, Muscle) was 0.02 %ID/g. It also gave a tissue uptake at 5 h ([2]; 5 nmol, Pancreas) of 0.41 ± 0.01 %ID/g and a tissue uptake at 5 h ([2]; 5 nmol, Stomach) of 0.41 ± 0.05 %ID/g.
